The series has as its system T1, Medicago sativa NAP1-like protein, 6×HIS-tagged, expressed in BL21 E. coli and purified on nickel agarose.
T1 sequence: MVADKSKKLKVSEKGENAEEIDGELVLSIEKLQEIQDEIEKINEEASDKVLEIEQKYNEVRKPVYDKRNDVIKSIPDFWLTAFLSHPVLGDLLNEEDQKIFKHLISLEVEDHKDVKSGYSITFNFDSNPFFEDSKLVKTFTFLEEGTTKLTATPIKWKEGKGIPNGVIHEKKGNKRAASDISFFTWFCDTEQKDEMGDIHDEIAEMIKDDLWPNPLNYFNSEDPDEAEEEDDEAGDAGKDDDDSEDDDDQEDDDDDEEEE

These results are taken from US20100199379.

Regarding “Protein Phosphatase 2A (PP2A) catalytic subunits purified from rabbit skeletal muscle”, the “PP2A activity on the phospho-histone H2A substrate (in vitro dephosphorylation of 32P-labelled substrate)” value is “already 2.5 mM concentration of the NAP1-like protein efficiently inhibited PP2A activity on the phospho-histonH2A substrate (50% decrease in activity)” and the “PP2A dephosphorylation of glycogen phosphorylase (in vitro, 32P-labelled substrate)” value is listed as “the NAP1-like protein had no influence on the dephosphorylation of the glycogen phosphorylase even at 500 mM concentration”.
